One block for each substance: values may come before it.
What was measured:
[1] = target: human BCMA and human GPRC5D, the dual targets expressed on NCI-H929 and RPMI8226 tumor cells; assay: flow cytometry (FACS), RPMI8226 cells
[2] = target: human BCMA and human GPRC5D, the dual targets expressed on NCI-H929 and RPMI8226 tumor cells; assay: flow cytometry (FACS), NCI-H929 cells
[3] = target: cynomolgus monkey CD3 recombinant protein (Acro, Cat. No. CDD-C52W4) (cynomolgus monkey) (UniProt Q95LI5); assay: SPR (Biacore), CD3 immobilised on CM5 chip, antibody as analyte, 1:1 model
cynomolgus monkey CD3 recombinant protein (Acro, Cat. No. CDD-C52W4) (cynomolgus monkey), sequence (Q95LI5 22-117): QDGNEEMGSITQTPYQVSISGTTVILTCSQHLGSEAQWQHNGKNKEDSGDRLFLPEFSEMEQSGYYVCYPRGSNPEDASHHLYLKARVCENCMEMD

[4] = target: human CD3 recombinant protein (Acro, Cat. No. CDD-H52W1) (human) (UniProt P07766); assay: as above
human CD3 recombinant protein (Acro, Cat. No. CDD-H52W1) (human), sequence (P07766 23-126): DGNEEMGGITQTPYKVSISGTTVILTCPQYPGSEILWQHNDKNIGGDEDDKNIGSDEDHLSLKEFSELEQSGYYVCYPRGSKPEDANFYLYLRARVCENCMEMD

[5] = target: cynomolgus monkey BCMA recombinant protein (Acro, Cat. No. BCA-C52H7) (cynomolgus monkey); assay: SPR (Biacore), antibody captured by anti-human IgG (Fc) on CM5 chip, BCMA as analyte, 1:1 model
[6] = target: human BCMA recombinant protein (Acro, Cat. No. BCA-H522y) (human) (UniProt Q02223); assay: as above
human BCMA recombinant protein (Acro, Cat. No. BCA-H522y) (human), sequence (Q02223 1-54 limits assumed): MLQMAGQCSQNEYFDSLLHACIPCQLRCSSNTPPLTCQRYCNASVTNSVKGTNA

[7] = target: human BCMA (human-BCMA) (human) (UniProt Q02223); assay: flow cytometry (FACS), human BCMA-CHOK1 cells
human BCMA (human-BCMA) (human), sequence (Q02223 whole entry): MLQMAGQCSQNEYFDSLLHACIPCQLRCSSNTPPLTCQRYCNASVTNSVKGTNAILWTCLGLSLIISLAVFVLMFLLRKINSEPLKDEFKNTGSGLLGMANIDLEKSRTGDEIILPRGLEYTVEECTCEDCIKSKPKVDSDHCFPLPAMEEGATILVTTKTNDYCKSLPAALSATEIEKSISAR

[8] = target: human GPRC5D (human-GPRC5D) (human) (UniProt Q9NZD1); assay: flow cytometry (FACS), human GPRC5D-CHOK1 cells
human GPRC5D (human-GPRC5D) (human), sequence (Q9NZD1 whole entry): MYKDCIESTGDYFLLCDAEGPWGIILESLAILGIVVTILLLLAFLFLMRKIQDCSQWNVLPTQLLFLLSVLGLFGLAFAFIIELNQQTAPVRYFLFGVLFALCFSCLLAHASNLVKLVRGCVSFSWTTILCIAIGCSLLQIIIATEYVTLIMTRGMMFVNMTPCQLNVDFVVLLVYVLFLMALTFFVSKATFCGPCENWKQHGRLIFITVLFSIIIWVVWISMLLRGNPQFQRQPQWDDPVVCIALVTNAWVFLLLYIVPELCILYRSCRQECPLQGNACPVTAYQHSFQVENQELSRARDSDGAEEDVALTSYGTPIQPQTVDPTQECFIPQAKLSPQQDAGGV

[9] = target: human BCMA (human-BCMA) (human) (UniProt Q02223); assay: flow cytometry (FACS), RPMI8226 cells
[10] = target: soluble BCMA (UniProt Q02223); assay: cell-based or functional assay
soluble BCMA, sequence (Q02223 1-54 limits assumed): as the sequence (Q02223 1-54 limits assumed) above

[11] = target: human BCMA (human-BCMA) (human) (UniProt Q02223); assay: cell-based or functional assay
[12] = target: human CD3 naturally expressed on Jurkat T lymphocytes and human PBMCs (human) (UniProt P07766); assay: flow cytometry (FACS), human PBMCs
human CD3 naturally expressed on Jurkat T lymphocytes and human PBMCs (human), sequence (P07766 23-207): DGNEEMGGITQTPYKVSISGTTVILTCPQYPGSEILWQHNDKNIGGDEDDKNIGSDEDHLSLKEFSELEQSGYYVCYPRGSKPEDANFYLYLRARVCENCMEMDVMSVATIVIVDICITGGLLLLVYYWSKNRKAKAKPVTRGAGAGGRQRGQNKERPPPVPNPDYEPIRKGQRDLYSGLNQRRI

[13] = target: cynomolgus monkey CD3 naturally expressed on cyno PBMCs (cynomolgus monkey) (UniProt Q95LI5); assay: flow cytometry (FACS), cyno PBMCs
cynomolgus monkey CD3 naturally expressed on cyno PBMCs (cynomolgus monkey), sequence (Q95LI5 22-198): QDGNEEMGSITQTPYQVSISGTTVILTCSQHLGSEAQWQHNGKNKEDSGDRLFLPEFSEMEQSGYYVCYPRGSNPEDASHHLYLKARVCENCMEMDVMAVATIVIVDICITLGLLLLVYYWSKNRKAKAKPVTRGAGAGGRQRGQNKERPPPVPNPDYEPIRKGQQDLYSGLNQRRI

[14] = target: cynomolgus monkey BCMA (cyno-BCMA) (cynomolgus monkey); assay: flow cytometry (FACS), cynomolgus monkey BCMA-CHOK1 cells
cynomolgus monkey BCMA (cyno-BCMA) (cynomolgus monkey), sequence (Q02223 other isoform, or with tags, fused parts or gaps): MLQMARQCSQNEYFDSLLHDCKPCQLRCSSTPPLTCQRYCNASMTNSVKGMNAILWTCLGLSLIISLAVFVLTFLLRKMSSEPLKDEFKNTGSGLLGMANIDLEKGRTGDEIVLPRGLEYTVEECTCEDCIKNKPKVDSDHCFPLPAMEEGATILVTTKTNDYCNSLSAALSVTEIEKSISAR

[15] = target: human CD3 naturally expressed on Jurkat T lymphocytes and human PBMCs (human) (UniProt P07766); assay: flow cytometry (FACS), Jurkat cells
[16] = target: human BCMA (human-BCMA) (human) (UniProt Q02223); assay: flow cytometry (FACS), NCI-H929 cells

Top MFI [1]: 112 MFI
Top MFI [2]: 104 MFI
Substance: hIgG1 LALA isotype (Biointron, Cat. No. B109802) (antibody)

Kd [3]: 22.2 nM
koff [3]: 0.00379 s⁻¹
kon [3]: 170000 M⁻¹ s⁻¹
Kd [4]: 18 nM
koff [4]: 0.00201 s⁻¹
kon [4]: 112000 M⁻¹ s⁻¹
Substance: Talquetamab analogue (GPRC5D/CD3), GPRC5DxCD3 bispecific antibody from Janssen

Substance: Teclistamab analogue (BCMA/CD3), BCMAxCD3 bispecific antibody from Janssen
Kd [5]: 8.49 nM
koff [5]: 0.0235 s⁻¹
kon [5]: 2.77e+06 M⁻¹ s⁻¹
Kd [6]: 0.379 nM
koff [6]: 0.00135 s⁻¹
kon [6]: 3.55e+06 M⁻¹ s⁻¹
EC50 [7]: 2.63 nM
Top MFI [7]: 2280 MFI
Top MFI [8]: 160 MFI
EC50 [9]: 1.17 nM
Top MFI [9]: 169 MFI
Ratio (EC50), TDCC on NCI-H929 with 2.5 ug/ml against 0 ug/ml BCMA [10]: 21
TDCC Cytotoxicity (max) on NCI-H929 with 2.5 ug/ml BCMA [10]: 53.9
TDCC EC50 (nM) on NCI-H929 with 2.5 ug/ml BCMA [10]: 2.36 nM
fold change of TDCC EC50 on NCI-H929 in the presence of 2500 ng/ml soluble BCMA [10]: 25 fold
TDCC Cytotoxicity (max) on NCI-H929 with 0 ug/ml BCMA [11]: 40.9
TDCC EC50 (nM) on NCI-H929 with 0 ug/ml BCMA [11]: 0.115 nM
EC50 [12]: 6.06 nM
Top MFI [12]: 672 MFI
EC50 [13]: 55.8 nM
Top MFI [13]: 2060 MFI
EC50 [14]: 15.3 nM
Top MFI [14]: 1770 MFI
EC50 [15]: 3.22 nM
Top MFI [15]: 825 MFI
Kd [3]: 21.1 nM
koff [3]: 0.00336 s⁻¹
kon [3]: 159000 M⁻¹ s⁻¹
Kd [4]: 21 nM
koff [4]: 0.00522 s⁻¹
kon [4]: 248000 M⁻¹ s⁻¹
EC50 [16]: 2.43 nM
Top MFI [16]: 669 MFI

Source: patent publication US20260234280A1
